± gives the uncertainty stated by the source.
Experiment: self-splicing fitness, log relative to wild type (ln ratio); higher = more splicing; Tetrahymena group I intron in knt gene, E. coli kanamycin selection, DiMSum; sequences stand for … in CUCUCU…GGAGGGAAAAGUUAUCAGGCAUGCACCUGGUAGCUAGUCUUUAAACCAAUAGAUUGCAUCGGUUUAAAAGGCAAGACCGUCAAAUUGCGGGAAAGGGGUCAACAGCCGUUCAGUACCAAGUCUCAGGGGAAACUUUGAGAUGGCCUUGCAAAGGGUAUGGUAAUAAGCUGACGGACAUGGUCCUAACCACGCAGCCAAGUCCUAAGUCAACAGAUCUUCUGUUGAUAUGGAUGCAGUUCACAGACUAAAUGUCGGUCGGGGAAGAUGUAUUCUUCUCAUAAGAUAUAGUCGGACCUCUCCUUAAUGGGAGCUAGCGGAUGAAGUGAUGCAACACUGGAGCCGCUGGGAACUAAUUUGUAUGCGAAAGUAUAUUGAUUAGUUUUGGAGUACUCGUGGUCG
Method in brief: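 A randomised library covering all eight P1ex-region intron nucleotides was built with the intron in the knt kanamycin-resistance gene on pET-22b(+) and held in E. coli BL21(DE3). Cells were grown overnight at 37°C or 30°C on LB agar, with or without 25 μg/mL kanamycin, plus 100 μg/mL carbenicillin, 50 μM IPTG and 0.2% rhamnose, and pooled colonies were amplicon-sequenced on an Illumina HiSeq 2500. DiMSum fitness is the error-weighted combination of wild-type-normalised replicate fold changes, kanamycin versus none.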

Sequence | self-splicing fitness (ln) (30 °C) | self-splicing fitness (ln) (37 °C)
CAGUAGCAAUAUUACGAAGU | -0.925 ± 0.18 | -1.82 ± 0.27
GCCUAGCAAUAUUACGACAA | -2.19 ± 0.23 | -2.22 ± 0.32
CGGUAGCAAUAUUACGAAUU | -2.07 ± 0.24 | -2.34 ± 0.24
UCCUAGCAAUAUUACGGAAA | -1.98 ± 0.23 | -2.51 ± 0.29
AUUCAGCAAUAUUACGCAGA | -2.28 ± 0.21 | -0.845 ± 0.12
CUUAAGCAAUAUUACGGCCG | -0.607 ± 0.093 | -0.38 ± 0.13
AGUGAGCAAUAUUACGCAGU | -3.01 ± 0.24 | -0.67 ± 0.2
AGGGAGCAAUAUUACGUUGG | -4.08 ± 0.37 | -2.5 ± 0.33
GGUUAGCAAUAUUACGCUCG | -0.367 ± 0.2 | 0.204 ± 0.28
UGGCAGCAAUAUUACGCGAG | -1.96 ± 0.1 | -0.954 ± 0.097
CCGGAGCAAUAUUACGCGGA | -3.34 ± 0.23 | -2.74 ± 0.29
AGCCAGCAAUAUUACGUGUC | -3.17 ± 0.12 | -0.932 ± 0.083
GCUUAGCAAUAUUACGCGUU | -0.427 ± 0.096 | 0.0522 ± 0.1
GCCUAGCAAUAUUACGCAAA | -0.846 ± 0.14 | -1.41 ± 0.16
CAGUAGCAAUAUUACGCGUU | -2.21 ± 0.23 | -1.64 ± 0.23
CUGUAGCAAUAUUACGCGAU | -4.41 ± 0.32 | -2.87 ± 0.28
CCAUAGCAAUAUUACGUUUG | -1.68 ± 0.1 | -0.897 ± 0.1
UCGAAGCAAUAUUACGCACU | -2.62 ± 0.18 | -0.962 ± 0.14
CUGGAGCAAUAUUACGCGGC | -1.27 ± 0.14 | 0.0532 ± 0.14
ACAUAGCAAUAUUACGCCCG | -0.76 ± 0.16 | -0.298 ± 0.15
ACACAGCAAUAUUACGGGAA | -2.99 ± 0.22 | -1.79 ± 0.14
GCAAAGCAAUAUUACGUCUG | -2.54 ± 0.11 | -1.69 ± 0.085

Sequence | self-splicing fitness (ln) (30 °C) | self-splicing fitness (ln) (37 °C)
CUGCAGCAAUAUUACGACGA | -1.85 ± 0.18 | -1.16 ± 0.17
ACGAAGCAAUAUUACGAUCA | -1.08 ± 0.12 | -0.536 ± 0.12
GGCGAGCAAUAUUACGUUUA | -1.4 ± 0.087 | -0.372 ± 0.11
UAGCAGCAAUAUUACGCAGA | -1.67 ± 0.14 | -1.33 ± 0.088
UCGCAGCAAUAUUACGUCAC | -3.57 ± 0.15 | -2.85 ± 0.16
ACGGAGCAAUAUUACGGACC | – | -0.877 ± 0.34
GCGAAGCAAUAUUACGCUAU | -2.45 ± 0.1 | -1.25 ± 0.11
UUGAAGCAAUAUUACGAAGA | -0.989 ± 0.11 | -0.181 ± 0.17
UUUAAGCAAUAUUACGGUAC | -2.22 ± 0.28 | –
AUUUAGCAAUAUUACGACCA | -0.901 ± 0.19 | -0.373 ± 0.23
UUCGAGCAAUAUUACGCCAC | – | -1.4 ± 0.46
ACGGAGCAAUAUUACGCCUG | -3.41 ± 0.2 | -1.52 ± 0.19
UGAGAGCAAUAUUACGCUUU | -4.15 ± 0.29 | -1.96 ± 0.17
GUAGAGCAAUAUUACGUAGU | – | -0.866 ± 0.15
UGGAAGCAAUAUUACGCGCC | -3.22 ± 0.32 | -1.54 ± 0.31
UUCAAGCAAUAUUACGCUCC | -1.54 ± 0.16 | -1.86 ± 0.24
AAUCAGCAAUAUUACGUGGA | -0.585 ± 0.072 | -0.433 ± 0.076
AGUAAGCAAUAUUACGUGCU | -2.64 ± 0.23 | -1.2 ± 0.14
GAUCAGCAAUAUUACGUCAC | -3.88 ± 0.2 | -2.13 ± 0.15
AGAAAGCAAUAUUACGCACA | -0.139 ± 0.1 | -0.236 ± 0.12
AGUGAGCAAUAUUACGACAG | -2.83 ± 0.33 | -1.67 ± 0.34
